Molecular target: human asialo-haptoglobin, phenotype 1-1 (Hp heterotetramer of two α1 and two β-subunits) (human) (UniProt P00738)
Assay: native MS

Q: Which stoichiometry N (Hb heterodimers per Hp heterotetramer) does the source give for “human hemoglobin holo-heterodimer (αHb and βHb) (from UniProt P69905 1-142; P68871 1-147) (complex)” here?
A: The stoichiometry N (Hb heterodimers per Hp heterotetramer) was 2.
